The source of these data is PMC11500612, “Differential effects of inosine monophosphate dehydrogenase (IMPDH/GuaB) inhibition in Acinetobacter baumannii and Escherichia coli” (Journal of Bacteriology, 2024).

The data set deals with the molecule itself. Briefly: crystal structure.

B1: A. baumannii GuaB with CBS domain deletion protein (M1-G488_ΔM93-R201) (enzyme)
chain: MLTIVQEALTFDDVLLLPAYSTVLPKDVSLKTRLTRGIYLNIPLVSAAMDTVTESRMAIAMAQNGGIGILHKNMDIAAQAAEVRRVKKFEAGKAESYPNSCKDDLGRLRVGAAVGTGADTPSRVEALVEAGVDVIVVDTAHGHSAGVIERVRWVKQNFPQVQVIGGNIATGDAALALLDAGADAVKVGIGPGSICTTRIVAGIGMPQISAIDSVASALKDQIPLIADGGIRFSGDMAKAIGAGASTIMVGSLLAGTEEAPGEVEFFQGRYYKAYRGMGSLGAMAGATGSADRYFQDSKAGAEKLVPEGIEGRVPYKGPMGNIVHQMMGGLRSSMGYTGSAVIEDLRQNAKFVKITSAGMSESHVHDVTITKEAPNYRVG
notes: also called A. baumannii GuaBΔCBS; GuaB^Ab; source: expressed, purified, and crystallized as described (28)
In the case of B1, the binding result is reported as “binds”.
